Laboratory results published in article PMC8791620 (Science Advances, 2022).

B1: His-sumo-Ypt32 (wild type) (enzyme, S. cerevisiae, UniProt P51996 1-222, looked up)
chain: MSNEDYGYDYDYLFKIVLIGDSGVGKSNLLSRFTTDEFNIESKSTIGVEFATRTIEVENKKIKAQIWDTAGQERYRAITSAYYRGAVGALIVYDISKSSSYENCNHWLTELRENADDNVAVGLIGNKSDLAHLRAVPTDEAKNFAMENQMLFTETSALNSDNVDKAFRELIVAIFQMVSKHQVDLSGSGTNNMGSNGAPKGPTISLTPAPKEDKKKKSSNCC
B2: Bet5 (subunit of core TRAPP/TRAPPI in TRAPPII) (natural protein, S. cerevisiae, UniProt Q03630 1-159, looked up)
chain: MGIYSFWIFDRHCNCIFDREWTLASNSASGTINSKQNEEDAKLLYGMIFSLRSITQKLSKGSVKNDIRSISTGKYRVHTYCTASGLWFVLLSDFKQQSYTQVLQYIYSHIYVKYVSNNLLSPYDFAENENEMRGQGTRKITNRNFISVLESFLAPMVNQ
B3: Trs31 (subunit of core TRAPP/TRAPPI in TRAPPII) (natural protein, S. cerevisiae, UniProt Q03337 1-283, looked up)
chain: MSQRIIQPSASDQQFPGKSDGYEYTVGPKQAITSEASTTYIPSRIYSESLLFKRQEASLSAMAFLFQEMISQLHRTCKTAGDFETKLSDYGHNIGIRLLELLNFRASVSPSSLPRASAFLSQNESSSKLSNASNSPGMLANSSTATSASANERLQEKQTESLSNYITKMRRRDLKILDILQFIHGTLWSYLFNHVSDDLVKSSERDNEYMIVDNFPTLTQFIPGENVSCEYFVCGIIKGFLFNAGFPCGVTAHRMPQGGHSQRTVYLIQFDRQVLDREGLRFG

Columns and labels:
[1] = target: B3; test: cryo-EM structure
[2] = target: T1, Trs23 (subunit of core TRAPP/TRAPPI in TRAPPII) (S. cerevisiae, UniProt Q03784 1-219); test: cryo-EM structure
T1 sequence (looked up): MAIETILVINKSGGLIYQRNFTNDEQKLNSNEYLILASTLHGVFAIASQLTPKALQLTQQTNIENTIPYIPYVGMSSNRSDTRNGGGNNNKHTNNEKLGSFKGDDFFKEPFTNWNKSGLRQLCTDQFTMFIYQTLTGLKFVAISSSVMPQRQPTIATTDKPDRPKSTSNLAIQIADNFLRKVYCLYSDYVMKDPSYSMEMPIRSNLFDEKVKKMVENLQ

[3] = target: T2, Bet3 (subunit of core TRAPP/TRAPPI in TRAPPII) (S. cerevisiae, UniProt P36149 1-193); test: cryo-EM structure
T2 sequence (looked up): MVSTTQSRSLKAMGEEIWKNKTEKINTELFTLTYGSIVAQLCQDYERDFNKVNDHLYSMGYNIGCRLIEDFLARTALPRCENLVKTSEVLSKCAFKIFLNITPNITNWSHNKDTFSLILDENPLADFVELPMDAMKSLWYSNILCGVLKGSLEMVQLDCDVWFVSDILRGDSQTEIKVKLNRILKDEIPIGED

[4] = target: T3, Trs120 (3xFLAG-tagged, subunit of TRAPPII) (S. cerevisiae, UniProt Q04183 1-1289); test: cross-linking
T3 sequence: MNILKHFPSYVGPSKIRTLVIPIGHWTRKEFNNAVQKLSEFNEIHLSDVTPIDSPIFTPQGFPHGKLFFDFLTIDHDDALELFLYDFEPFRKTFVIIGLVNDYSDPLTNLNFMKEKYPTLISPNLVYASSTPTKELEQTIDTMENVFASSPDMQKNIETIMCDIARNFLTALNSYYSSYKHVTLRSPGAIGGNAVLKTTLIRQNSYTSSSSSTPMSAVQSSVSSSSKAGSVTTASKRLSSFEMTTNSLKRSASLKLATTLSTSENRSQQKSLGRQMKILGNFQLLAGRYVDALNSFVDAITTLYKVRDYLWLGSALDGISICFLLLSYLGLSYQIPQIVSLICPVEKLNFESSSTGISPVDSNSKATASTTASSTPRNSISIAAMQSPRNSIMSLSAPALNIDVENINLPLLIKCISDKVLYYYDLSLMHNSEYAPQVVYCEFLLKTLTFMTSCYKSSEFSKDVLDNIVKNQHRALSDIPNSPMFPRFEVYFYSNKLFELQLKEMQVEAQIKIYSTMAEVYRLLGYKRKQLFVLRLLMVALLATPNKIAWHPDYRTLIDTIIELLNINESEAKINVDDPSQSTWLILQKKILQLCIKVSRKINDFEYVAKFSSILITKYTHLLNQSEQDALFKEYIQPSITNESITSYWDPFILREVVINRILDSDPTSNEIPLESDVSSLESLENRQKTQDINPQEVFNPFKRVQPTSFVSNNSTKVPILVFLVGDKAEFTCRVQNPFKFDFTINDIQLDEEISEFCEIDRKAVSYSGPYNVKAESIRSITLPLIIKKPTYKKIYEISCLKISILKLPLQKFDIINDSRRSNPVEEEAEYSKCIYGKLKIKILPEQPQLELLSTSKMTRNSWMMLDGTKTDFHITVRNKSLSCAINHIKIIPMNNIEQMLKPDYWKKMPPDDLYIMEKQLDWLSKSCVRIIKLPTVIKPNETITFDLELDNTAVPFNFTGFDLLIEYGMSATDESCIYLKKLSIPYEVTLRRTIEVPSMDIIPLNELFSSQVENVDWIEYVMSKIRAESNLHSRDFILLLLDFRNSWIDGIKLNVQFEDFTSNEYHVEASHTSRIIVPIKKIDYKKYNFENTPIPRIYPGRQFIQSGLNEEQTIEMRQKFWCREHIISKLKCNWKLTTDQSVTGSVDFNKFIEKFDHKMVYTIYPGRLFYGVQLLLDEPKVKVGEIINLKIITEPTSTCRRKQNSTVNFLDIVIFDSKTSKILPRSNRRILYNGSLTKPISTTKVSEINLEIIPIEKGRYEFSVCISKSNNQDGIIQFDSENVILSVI

Binder: B1
- binding result [1]: binds

Binder: B2
- binding result [2]: binds
- binding result [3]: binds

Binder: B3
- binding result [4]: binds
